Positions count from the first letter of the chain named.
B1: VV02-1LP-288 (Fc fusion, not shown: a dimerising Fc or GST; small tags and cut ends)
VHH: EVQVVESGGGLVQPGGSLRLSCAASGSSLDYSAIGWFRQAPGKEREGVLCISSSGDVTIYADSVKGRFTISRDNAKNTVYLQMNSLKPEDTAVYYCVAPRICSTYSSDDYWGQGTQVTVSS
B2: VV02-1LP-417 (Fc fusion, not shown: a dimerising Fc or GST; small tags and cut ends)
VHH: B1 VHH with E1Q, V2L, V4L, S27F, S28A
B3: VV02-1SP (1)-73 huNb_1_1 (Fc fusion, not shown: a dimerising Fc or GST)
VHH: EVQLLESGGGLVQPGGSLRLSCAASGFTFSSSAMSWARQAPGKGLEWVSSIYSSGKTYYVESVKGRFTISRDNSKNTLYLQMNSLRAEDTAVYYCAKWKTLRVGVWDESDYWGQGTLVTVSS

Assays:
[1] = biological target: His-tagged cynomolgus 4-1BB protein (cynomolgus) (UniProt A9YYE7); test: ELISA, coated His-tagged 4-1BB, anti-human IgG-HRP
[2] = biological target: human 4-1BB expressed on cells (human) (UniProt Q07011); test: flow cytometry on CHO-K1/hu4-1BB cells, anti-human Fc-Alexa Fluor 633
human 4-1BB expressed on cells (human), sequence (Q07011 24-255): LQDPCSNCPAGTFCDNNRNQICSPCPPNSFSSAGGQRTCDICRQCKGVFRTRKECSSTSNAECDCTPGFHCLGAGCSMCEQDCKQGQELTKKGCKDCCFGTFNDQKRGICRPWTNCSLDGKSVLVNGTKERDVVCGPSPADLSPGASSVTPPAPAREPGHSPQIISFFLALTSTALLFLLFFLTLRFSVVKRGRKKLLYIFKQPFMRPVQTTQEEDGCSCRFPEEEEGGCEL

His-tagged cynomolgus 4-1BB protein (cynomolgus), sequence (A9YYE7 entry or part of it): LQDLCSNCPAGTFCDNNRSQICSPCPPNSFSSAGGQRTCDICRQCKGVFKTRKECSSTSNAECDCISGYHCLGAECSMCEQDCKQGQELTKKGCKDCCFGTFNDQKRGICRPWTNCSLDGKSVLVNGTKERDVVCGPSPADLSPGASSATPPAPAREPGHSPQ

| Binder | EC50 [1] | Max (MFI) [2] |
| --- | --- | --- |
| B1 | > 30 nM | – |
| B2 | > 30 nM | – |
| B3 | – | 233 MFI |
